Assay results reported in patent US20260209386A1 (MYTHIC THERAPEUTICS, published 2026).
Where a chain is given by its changes, count along the chain named.

T1: Human PTK7/CCK4 Protein, His Tag, Acro Biosystems PT7-H52H3 (human, UniProt Q13308 31-704)
T1 construct: bought protein; also called Human PTK7 Protein, His Tag, Acro Biosystems; not shown: His tag
T1 sequence: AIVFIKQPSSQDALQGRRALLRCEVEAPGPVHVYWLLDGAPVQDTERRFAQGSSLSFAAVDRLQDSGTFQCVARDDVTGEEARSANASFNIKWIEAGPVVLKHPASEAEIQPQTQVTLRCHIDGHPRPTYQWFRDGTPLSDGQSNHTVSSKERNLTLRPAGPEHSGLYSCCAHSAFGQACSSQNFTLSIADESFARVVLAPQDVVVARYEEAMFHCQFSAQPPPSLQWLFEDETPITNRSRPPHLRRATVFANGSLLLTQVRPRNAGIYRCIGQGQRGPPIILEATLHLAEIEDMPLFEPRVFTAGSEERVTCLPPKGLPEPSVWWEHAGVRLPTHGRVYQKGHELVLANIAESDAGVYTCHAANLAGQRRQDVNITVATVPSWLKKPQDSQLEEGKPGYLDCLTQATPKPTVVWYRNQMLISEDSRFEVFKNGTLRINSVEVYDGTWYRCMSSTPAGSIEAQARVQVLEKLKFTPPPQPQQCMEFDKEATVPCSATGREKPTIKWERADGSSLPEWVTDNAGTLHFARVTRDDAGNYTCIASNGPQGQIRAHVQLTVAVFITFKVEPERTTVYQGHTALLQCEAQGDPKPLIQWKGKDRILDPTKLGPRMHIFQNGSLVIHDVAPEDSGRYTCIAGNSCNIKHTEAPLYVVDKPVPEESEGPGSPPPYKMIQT

B1: MYT10951 (antibody, V domains shown)
VH: EVQLVESGGGLVQPGGSLRLSCTASHFSLSSYAMGWVRQAPGKGLEWVGFINAGGNTYYANWAKGRFTISRDTSKNTVYLQMNSLRAEDTAVYFCARRYSRASGWYDLWGQGTLVTVSS
VL: EIVMTQSPSTLSASVGDRVIITCQASQSISSYLAWYQQKPGKAPKLLIYAASTLASGVPSRFSGSGSGAEFTLTISSLQPDDFATYYCQSYSYSSGIDYGDVFGQGTKLTVL
notes: IgG
B2: MYT10959 (antibody, V domains shown)
VH: B1 VH with H26G, M34H
VL: B1 VL
notes: IgG
B3: MYT10963 (antibody, V domains shown)
VH: B1 VH with H26G, N52H
VL: B1 VL
notes: IgG
B4: MYT10974 (antibody, V domains shown)
VH: B1 VH with H26G, A63H
VL: B1 VL
notes: IgG
B5: MYT10978 (antibody, V domains shown)
VH: B1 VH with H26G, R97H
VL: B1 VL
notes: IgG
B6: MYT10966 (antibody, V domains shown)
VH: B1 VH with H26G, G55H
VL: B1 VL
notes: IgG
B7: MYT10970 (antibody, V domains shown)
VH: B1 VH with H26G, Y59H
VL: B1 VL
notes: IgG
B8: MYT10969 (antibody, V domains shown)
VH: B1 VH with H26G, Y58H
VL: B1 VL
notes: IgG
B9: MYT10980 (antibody, V domains shown)
VH: B1 VH with H26G, Y99H
VL: B1 VL
notes: IgG
B10: MYT10997 (antibody, V domains shown)
VH: B1 VH with H26G
VL: B1 VL with I29H
notes: IgG
B11: MYT10962 (antibody, V domains shown)
VH: B1 VH with H26G, I51H
VL: B1 VL
notes: IgG
B12: MYT10993 (antibody, V domains shown)
VH: B1 VH with H26G
VL: B1 VL with A25H
notes: IgG
B13: MYT10998 (antibody, V domains shown)
VH: B1 VH with H26G
VL: B1 VL with S30H
notes: IgG
B14: MYT10957 (antibody, V domains shown)
VH: B1 VH with H26G, Y32H
VL: B1 VL
notes: IgG
B15: MYT10888 (antibody, V domains shown)
VH: EVQLVESGGGLVQPGGSLRLSCTASGFSHSNYVMNWVRQAPGKGLEWVGIIDSSGSTYYASWAKGRFTISRDTSKNTVYLQMNSLRAEDTAVYFCARGLYLWGQGTLVTVSS
VL: EIVMTQSPSTLSASVGDRVIITCQSSQSVYNNNLLAWYQQKPGKAPKLLIYYTSNLASGVPSRFSGSGSGAEFTLTISSLQPDDFATYYCQGGYNGNIYAFGQGTKLTVL
notes: IgG
B16: MYT10937 (antibody, V domains shown)
VH: B15 VH with H29L
VL: B15 VL with A57H
notes: IgG
B17: MYT10911 (antibody, V domains shown)
VH: B15 VH with H29L, A96H
VL: B15 VL
notes: IgG
B18: MYT10926 (antibody, V domains shown)
VH: B15 VH with H29L
VL: B15 VL with N31H
notes: IgG
B19: MYT10897 (antibody, V domains shown)
VH: B15 VH with H29L, D52H
VL: B15 VL
notes: IgG
B20: MYT10942 (antibody, V domains shown)
VH: B15 VH with H29L
VL: B15 VL with Y94H
notes: IgG
B21: MYT10927 (antibody, V domains shown)
VH: B15 VH with H29L
VL: B15 VL with N32H
notes: IgG
B22: MYT10939 (antibody, V domains shown)
VH: B15 VH with H29L
VL: B15 VL with Q91H
notes: IgG
B23: MYT10925 (antibody, V domains shown)
VH: B15 VH with H29L
VL: B15 VL with Y30H
notes: IgG
B24: MYT10903 (antibody, V domains shown)
VH: B15 VH with H29L, Y58H
VL: B15 VL
notes: IgG
B25: MYT10943 (antibody, V domains shown)
VH: B15 VH with H29L
VL: B15 VL with N95H
notes: IgG
B26: MYT10930 (antibody, V domains shown)
VH: B15 VH with H29L
VL: B15 VL with L35H
notes: IgG
B27: MYT10896 (antibody, V domains shown)
VH: B15 VH with H29L, I51H
VL: B15 VL
notes: IgG
B28: MYT10916 (antibody, V domains shown)
VH: B15 VH with H29L, L101H
VL: B15 VL
notes: IgG
B29: MYT10928 (antibody, V domains shown)
VH: B15 VH with H29L
VL: B15 VL with N33H
notes: IgG
B30: MYT10891 (antibody, V domains shown)
VH: B15 VH with H29L, Y32H
VL: B15 VL
notes: IgG
B31: MYT10944 (antibody, V domains shown)
VH: B15 VH with H29L
VL: B15 VL with G96H
notes: IgG
B32: MYT10895 (antibody, V domains shown)
VH: B15 VH with H29L, I50H
VL: B15 VL
notes: IgG
B33: MYT10898 (antibody, V domains shown)
VH: B15 VH with H29L, S53H
VL: B15 VL
notes: IgG
B34: MYT10935 (antibody, V domains shown)
VH: B15 VH with H29L
VL: B15 VL with N55H
notes: IgG
B35: MYT10946 (antibody, V domains shown)
VH: B15 VH with H29L
VL: B15 VL with I98H
notes: IgG
B36: MYT10905 (antibody, V domains shown)
VH: B15 VH with H29L, A60H
VL: B15 VL
notes: IgG
B37: MYT10889 (antibody, V domains shown)
VH: B15 VH with H29L, S30H
VL: B15 VL
notes: IgG
B38: MYT10949 (antibody, V domains shown)
VH: B15 VH with H29L
VL: B15 VL with T108E, V109I, L110K
notes: IgG
B39: MYT10936 (antibody, V domains shown)
VH: B15 VH with H29L
VL: B15 VL with L56H
notes: IgG
B40: MYT10920 (antibody, V domains shown)
VH: B15 VH with H29L
VL: B15 VL with S25H
notes: IgG

Each binder was assayed against T1, Human PTK7/CCK4 Protein, His Tag, Acro … (assay: BLI, antibody on anti-human Fc sensor, 50 nM PTK7).

| binding result | Binder |
| --- | --- |
| binds | B1 |
| binds | B2 |
| binds | B3 |
| binds | B4 |
| binds | B5 |
| binds | B6 |
| binds | B7 |
| binds | B8 |
| binds | B9 |
| binds | B10 |
| binds | B11 |
| binds | B12 |
| binds | B13 |
| binds | B14 |
| binds | B15 |
| binds | B16 |
| binds | B17 |
| binds | B18 |
| binds | B19 |
| binds | B20 |

| binding result | Binder |
| --- | --- |
| binds | B21 |
| binds | B22 |
| binds | B23 |
| binds | B24 |
| binds | B25 |
| binds | B26 |
| binds | B27 |
| binds | B28 |
| binds | B29 |
| binds | B30 |
| binds | B31 |
| binds | B32 |
| binds | B33 |
| binds | B34 |
| binds | B35 |
| binds | B36 |
| binds | B37 |
| binds | B38 |
| binds | B39 |
| binds | B40 |
